Publication PMC12251106, “An Organic Solvent-Tolerant α-L-Rhamnosidase from Dictyoglomus thermophilum and Its Application in Production of Icariside I from Icariin” (Molecules, 2025)

Substrate: C[C@@H]1O[C@@H](Oc2ccc([N+](=O)[O-])cc2)[C@H](O)[C@H](O)[C@H]1O
Assay: purified protein
Format: biochemical, Dictyoglomus thermophilum
Details: 100 mM NaAc-HAc pH 6.0, 55 °C, 0.1-5 mM pNPR, 0.2 mg/mL enzyme, apparent parameters

B1: DthRha (Dictyoglomus thermophilum H-6-12) (protein)
chain: MKSSNIYSPFDLKCEFTTNPLGVDKKNPIFSWKLRHLEKNEKQTAYQVIVSSSLETINDNIGDVWDTGKVLSSEQVIKYEGKELEPCKVYFWKVRWWDSKDQESPFSVVNTFETGLMNEENWKAKWITKKEHKYEVYSPDGAPFGLNYTIAYAPMFRKSFSISKKIKRARVYIAGLGLYELYINGERIGDRVLDPGQTDYKKRVLYTVYDVSKNIRDGKNAIGVILGNGRYVKEYGYDFPKLIIQVLVEYEDDSIEWIVSDESWKTTYGPITLNSLYHGEIYDGRKEIKGWNLPDFDDSTWENAILAEPPGGKLYSEIYPPIRITKTIKPIKMWSPEPGTYVYDFGQNYTGWIKIKVRTNESGKEIRIRHAELTYEDGTLNYSTNRTALATDVYITKGEGYEEYEPRFTYHGFRYVEILGYPGVPTLEDIEGKVVHTAVESNGEFICSNELINKIHHNIIWGQLSNLMSIPTDCPQRDERMGWMGDAQLSAEEAIFNFDMIGFYRKYLNDIRDAQKENGSLSDVIPPYWSIYPGDPAWSTAYITIAWYLYQYYGDKYVLEEHYEGFKKYVEFLKKLAPDYIVSFYKYGDWCQPGTVRPKDNSGELTSTFYFYHDVITLSKIAKLLGKEADYKYYSELADKIKSAFNKKFLKEKAYASIPTELSEENVKALLEKYPEDIKDFLRQQFTILSSLGMFTSQTLNTLPLYLNLVPEDKVQDVLKTLLEDIIIRHDYHLDTGIVATRYIFDVLTSYGYDEVAYKIVNQKTYPSFGYMIEEGATTLWERWEKLTSTGMNSHNHIMFGSVDAWFYRVIAGVRVGEPGWNKIIFEPHPVGDLKYAKARLNTIKGEVEINWQKTENIFSMRISVPVNSEGEVHVPKLFERFVVKEGDNIIYEKKGDLEENEKYIVIRVGSGSYNFYMEKI
notes: 921 residues (2763 bp gene); theoretical 106 kDa, about 105 kDa on SDS-PAGE
Km: 440 µM | kcat: 7.99 s⁻¹ | kcat/Km: 18200 M⁻¹ s⁻¹
